The source of these data is publication PMC12483565, “CBFβ-SMMHC–driven leukemogenesis requires enhanced RUNX1-DNA binding affinity in mice”.

For this series, the target named is RUNX1c-R201Q (human, UniProt Q01196-8 1-480, R201Q). Put plainly: EMSA; BLI: 20 mM Tris-HCl pH 8.0, 150 mM KCl, 1 mM EDTA, 1 mM DTT, 0.02% Tween-20, with 800 nM CBFβ or 400 nM CBFβ-SMMHC/mutant, preincubated 37 °C 30 min; EMSA: room temperature 30 min, 4-12% TBE gel, 1x TBE. As to conditions: protein: ivt; label: IRDye700. Background: Mobility shift assays separate free from complexed probe on a gel.
RUNX1c-R201Q, sequence (Q01196 other isoform, or with tags, fused parts or gaps R201Q | R201Q R201Q): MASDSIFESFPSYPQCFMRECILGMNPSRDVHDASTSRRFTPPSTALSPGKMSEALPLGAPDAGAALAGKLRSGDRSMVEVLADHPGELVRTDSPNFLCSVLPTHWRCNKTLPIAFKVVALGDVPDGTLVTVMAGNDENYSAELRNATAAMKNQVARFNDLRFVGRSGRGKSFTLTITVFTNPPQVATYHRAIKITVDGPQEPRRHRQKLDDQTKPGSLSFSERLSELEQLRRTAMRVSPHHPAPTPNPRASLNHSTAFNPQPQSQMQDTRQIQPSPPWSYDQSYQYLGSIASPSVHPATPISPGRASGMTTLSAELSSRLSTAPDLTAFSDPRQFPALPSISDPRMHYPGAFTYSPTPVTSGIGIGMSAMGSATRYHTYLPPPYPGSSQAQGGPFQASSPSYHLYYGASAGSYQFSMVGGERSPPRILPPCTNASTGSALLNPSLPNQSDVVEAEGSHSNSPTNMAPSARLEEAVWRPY

B1: CSF1R promoter probe (EMSA) (dsDNA)
DNA 1: CAAACTCTGTGGTTGCCTTG
DNA 2: CAAGGCAACCACAGAGTTTG
Take B1: the binding result is “no binding”.
